This series can be described thus: yeast display, Sf9 membrane polyspecificity reagent, FACS + sequencing; frameworks hold sequencing errors. In a few lines:
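Nanobodies came from a synthetic yeast display library in Saccharomyces cerevisiae BJ5465, induced with galactose for 36–48 hours and stained for 1 hour at 4 °C with 10% biotinylated, detergent-solubilized Sf9 membrane reagent. Cells were enriched on streptavidin microbeads and then FACS-sorted, with low and high (top ~1%) gates set on anti-HA fluorescence for expression and streptavidin fluorescence for reagent binding. Each polyreactivity label reflects the gate a clone came from. Genes were amplified by colony PCR, sequenced by MiSeq 2 × 250 and filtered by CDR length.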
In the case of “QVQLVESGGGLVQAGGSLRLSCAASGRTFAWYTMGWYRKAPGKERELVAAISGSGGSTYYADSVKGRFTISRDNAKNTVYLQMNSLKPEDSAVYYCARRVDSYYGHTRYYYWGQGTQITVSS”, the “polyreactivity (PSR sort gate)” value is given as “high polyreactivity”. Then “QVQLVESGGGLVQAGGSLRLSCAASGSIFGYYDMGWYRQAPGKEREFVAASTFRGGRTYYADSVKGRFTISRDNEKNTVYIQMYSLKPEDTAVDFCAAGYHHRWGNYWGQGTQVTVSS”, with “high polyreactivity”; and “QVQLVESGGGLVQAGGSLRLSCAASGLTFVDYAMGWYRQAPGKERELVASIDYSGSSTYYADSVKGRFTISRDNAKNTVYLQMNSLKPEDTAVYYCAATDSGEYWGQGTQVTVSS”, with “low polyreactivity”. As to “QVQLVESGGGLVQAGGSLRLSCAASGSIFTQNAMGWYRQAPGKERELVAAITSTGGSTYYADSVKGRFTISRDNAKNTVYLQMNSLKPEDTAVYYCNADGFRRAALHDYWGQGTQVTVSS”, the “polyreactivity (PSR sort gate)” value is reported as “high polyreactivity”. Regarding “QVQLVESGGGLVQAGGSLRLTCAASGITFYGYAMGWYRQAPGKERELVAAISKSGGSTHYADSVKGRFTISRDNAKNTVYLQMNSLKPEDTAVYYCAAAYWTRLRRMDYWGQGTQVTVSS”, the “polyreactivity (PSR sort gate)” value is “low polyreactivity”. With “QVQLVESGGGLDQAGGSLRLSCAASGRTFYVYGMGWSRQAPGKERELVAAIRSSGGSTYADSVKGRFTISRDNAKKTVYLQMNSLKPEDTAVDYCAADRRYAESGYYWGQGTQVTVSS”, the “polyreactivity (PSR sort gate)” value is on record as “high polyreactivity”. In the case of “QVQLVESGGGLVQAGGSLRLSCAASGFTFGYNAMGWYRQAPGKERELVAAISSSGGSTYYADSVKGRFTISRDNAKNTVYLQMNSLKPEDTAVYYCAKRTPRKWGQGTQVTVSS”, the “polyreactivity (PSR sort gate)” value is recorded as “high polyreactivity”. “QVQLVESGGGFVQAGGSLRLSCAASGSTLPYYAMGWYRQAHGKERELVADITARGGTYYADSVKGRFTISRDNAKNTVYLQMNSLKPEDTAVYYCAAAYSLWQFYWDQGYDYWGQGTQVTVSS”: the “polyreactivity (PSR sort gate)” value was “high polyreactivity”.

With “QVQLVESGGGLVQAGGSLRLSCAASGLTLYLYTMGWYRQAPRTDRELVASIDSGTSTKYADSVKGRFTISRDHAKYTVYLQMNRLKPVDTAGYDCAAGVWVTRYFGYYYWGQGTQVTVSS”, the “polyreactivity (PSR sort gate)” value is “low polyreactivity”. For the sequence “QVQLVESGGGLVQAGGSLRLSCAASGFIFNYYAMGWYIQAPGKERELVAAISTNGGSTYYADSVKGRFTISRDNAKNTVYLQMNSLKPEDTAVYYCAARSYGVSGRYYRYTFGMDYWGQGTQVTVSS”, the “polyreactivity (PSR sort gate)” value is on record as “high polyreactivity”. Take “QVQLVESGGGLVQAGGSLRLSCAASGRTFRRNTMGWYRQAPGKERELVAAISNRGTSTYYADSVKGRFTFSRDNAKNTVYLQMNSLKPEDTAVYYCAAREKYISYSYYYWGQGTQVTVSS”: the “polyreactivity (PSR sort gate)” value was “high polyreactivity”. Then “QVQLVESGGGLVQAGGSLRLSCAASGRIFSRYAMGWYRQAPGKERELVAVISRSGADTYYADSVKGRFTISRDNAKNTVYLQMNSLKPEDTAVFYCNAYSARRPHPMCYDSWGQGTQVTVSS”, with “high polyreactivity”; and “QVQLVESGGGLVQAGGSLRLSCAASGRTFRLNAMGWYRQAPGKERELVAAINTGGGTYYADSVKGRFTISRDNAKNSVYLQMNSLKPEDTAVYYCNACTRYGSFSYVKYDWGQGTQVTVSS”, with “high polyreactivity”. Turning to “QVQLVESGGGLVQAGGSLRLSCAASGSTLQINGMGGYRQAPGKERELVAAISIGGDTNYADSVKGRFTISRDNAKNTEMNSLKTEDTAVYYCNTDYFGSLVVVIFDYWGQGTQVTVSS”, the “polyreactivity (PSR sort gate)” value is “low polyreactivity”. For the sequence “QVQLVESGGGLVQAGGSLRLSCAASGFIFSTNAMGWYRQAPGKERELVATIRSGGSTNYADSVKGRFTISRDNAKNTVYLQMNSLKPEDTAVYYCAAEPPGSTYEGGYWGQGTQVTVSS”, the “polyreactivity (PSR sort gate)” value was “low polyreactivity”. In the case of “QVQLVESGGGLVQAGGSLRLSCAASGRTITWYAMGWYRQAPGTERELVAAITRTGRTTYADSVKGRFTISRDNAKNTVYLQMNSLKPEDTAVYYCAARRWGEYDYWGQGTQVTVSS”, the “polyreactivity (PSR sort gate)” value was “high polyreactivity”.
